# According to US10654925B2, “Anti-marinobufagenin antibodies and uses thereof” (priority 2018, dated 2020):
# Experiments:
# [1] = Competitive ELISA, relative CTS specificity, OUB as competitor; assay type: binding; conditions: competition with immobilized MBG-BSA; normalized to MBG = 100%
# Description: (§1) The specificity (relative affinity) of anti-MBG antibodies for MBG relative to various cardiotonic steroids (CTSs) was determined in a competitive ELISA. Each anti-MBG antibody was tested for its binding to immobilized MBG in the presence of free MBG, resibufogenin (RBG), cinobufagin (CINO), ouabain (OUB) or digoxin (DIG) as a competitor. A constant amount of an anti-MBG antibody (typically 1-5 μg/mL) and varying concentrations of each CTS (from 10^−12M to 10^−5M) were pre-incubated before being added to the MBG-BSA-coated wells. After washing of the wells, an anti-human Fc, HRP-conjugated secondary antibody (at 1:5000 dilution) was added to the wells and incubated at 37° C. for 1 hr. After washing of the wells, an appropriate HRP reagent (e.g., TMB ultra, Thermo Fisher) was added to the wells. OD at 450 nm was measured by a microplate reader. MBG at 10 μM was assumed to be 100% competed, and MBG at 1 pM was assumed to be 0% competed. The data was plotted as a titration of antibody-antigen binding relative to free CTS concentration in the competition reaction to determine the free CTS concentration (μM) giving 50% maximal binding of antibody to immobilized MBG. The relative specificity of an antibody for a CTS was normalized to MBG=100%.
# [2] = Direct ELISA antigen binding of humanized anti-MBG; conditions: 2 μg/ml MBG-conjugated BSA coated; OD 450 nm; among the 6 humanized antibodies; FIG. 1a, 1b
# Description: The antigen binding of humanized anti-MGB was assayed in a direct Elisa assay. 2 μg/ml of MBG-conjugated BSA was coated in the Elisa plate. After blocking with 1% BSA, 2-fold dilution series of humanized anti-MBG was added to the plate. After washing, the bound antibody was detected by adding anti-human Fc HRP conjugate, and quantified by adding the TMB substrate. OD absorption at 450 nm was measured in a microplate reader.
# [3] = Competitive ELISA, relative CTS specificity, free MBG as competitor; assay type: binding; conditions: competition with immobilized MBG-BSA; normalized to MBG = 100%
# Description: as §1
# [4] = ELISA avidity estimate on MBG-BSA; assay type: binding; conditions: wells coated with 2 μg/ml MBG-BSA; IgG
# Description: The avidity of anti-MBG antibodies for MBG was estimated in an ELISA. Wells of a microtiter plate were coated with 2 μg/ml of either MBG-bovine serum albumin (BSA) or MBG-keyhole limpet hemocyanin (KLH). The wells were then blocked with 1% BSA. A test IgG antibody at varying concentrations (typically from about 0.0001 nM to about 25 nM) was added to the wells. The test IgG bound to immobilized MBG was detected with an anti-human Fc, horseradish peroxidase (HRP)-conjugated secondary antibody (Jackson ImmunoResearch). After washing of the wells, an appropriate HRP reagent (e.g., TMB ultra, Thermo Fisher) was added to the wells. Optical density (OD) at 450 nm was measured by a microplate reader. The concentration of test antibody at the midpoint of the binding curve is an estimate of avidity for MBG.
# [5] = test system: Na^+K^+-ATPase (NKA); assay: Na^+K^+-ATPase activity (Malachite Green Phosphate Assay); assay type: biochemical, rat; conditions: anti-MBG antibodies 1-100 μg/mL; FIG. 4
# Description: Na^+K^+-ATPase (NKA) was purified from rat heart. The NKA was collected as the sarcolemmal/particulate (SLP) fraction and frozen.
# Na^+K^+-ATPase activity was measured as follows: aliquots of SLP were mixed with Reaction Buffer (200 mM Tris-HCl, pH 7.5, 200 mM NaCL, 30 mM MgCl2, 60 mM KCl, 10 mM EGTA, 100 μg/mL PMSF, 2 μg/mL pepstatin A, and 2 μg/mL aprotinin). Reactions were performed with or without MBG and with or without anti-MBG antibodies (1-100 μg/mL). Ouabain was used as positive control for NKA inhibition. Tubes were prewarmed, and ATP was added. Reactions were stopped and were placed on ice.
# Phosphate was assayed using the Malachite Green Phosphate Assay. Phosphate standard or sample was added to each well of a 96-well plate, followed by Reagent A. Reagent B was added, with mixing and incubation. OD was then read at 630 nm in a microplate spectrophotometer.
molecule,measurement,setting,value
"H3L2: humanized anti-MBG antibody, VH H3 (SEQ ID NO: 11) with VL L2 (SEQ ID NO: 13) (antibody, V domains shown, Humanized VH sequence; Humanized VL sequence) VH: EVQLQESGPGLVKPSETLSLTCTVSGDSITSGYWNWIRQPPGKGLEYMGYISYSGTTYYNPSLKSRITISRDTSKNQYSLKLSSVTAADTAVYYCARARYGYGFDYWGQGTLVTVSS VL: DVVMTQSPLSLPVTLGQPASISCRSSQSIVHSNRNTYLEWYQQRPGQSPRLLIYKVSNRFSGVPDRFSGSGSGTDFTLKISRVEAEDVGVYYCFQGSHVPLTFGGGTKVEIK",Rel. CTS Specificity as % of MBG Binding: OUB,[1],0%
same,binding affinity in direct ELISA,[2],highest binding affinity
same,Rel. CTS Specificity as % of MBG Binding: MBG,[3],100%
same,"Estimated avidity (KA) (antibody concentration at 50% maximal binding to antigen, or EC50), Antigen 1 (MBG-BSA)",[4],0.6 nM
same,inhibitory effect of MBG on NKA in presence of antibody,[5],reduce the inhibitory effect of MBG on NKA
